These results are taken from the Human Domainome abundance scans (Beltran et al. 2025).

± gives the uncertainty stated by the source.

The chains are these.
B1: Myocardin, residues 363 to 406; numbered along this chain, Q8IZQ8 (parent)
chain: KPGPLPPNLDDLKVSELRQQLRIRGLPVSGTKTALMDRLRPFQD

This data set covers variants of B1. Put plainly: abundance fitness (aPCA) (normalised: wild type 0, dead -1); higher = more abundant; growth selection in yeast, the domain comes from the species named. Particulars: Homo sapiens.
Regarding KPGPLPPNLDDLKVSELRQQLRIRGLPQSGTKTALMDRLRPFQD, the abundance fitness came out at 0.027 ± 0.069.
In the case of KPGPLPPNLDDLKVSELRQQLRIRGLPLSGTKTALMDRLRPFQD it was -0.07 ± 0.064; in that of KPGPLPPNLDDLKVSELRQQLRIRGLPGSGTKTALMDRLRPFQD, -0.168 ± 0.062; in that of KPGPLPPNLDDLKVSELRQQLRIRGLPSSGTKTALMDRLRPFQD, 0.123 ± 0.098.
Take KPGPLPPNLDDLKVSELRQQLRIRGLPPSGTKTALMDRLRPFQD: the abundance fitness is -0.198 ± 0.074.
The result for KPGPLPPNLDDLKVSELRQQLRIRGLPWSGTKTALMDRLRPFQD reads -0.13 ± 0.089; that for KPGPLPPNLDDLKVSELRQQLRIRGLPCSGTKTALMDRLRPFQD, 0.207 ± 0.094.
Take KPGPLPPNLDDLKVSELRQQLRIRGLPKSGTKTALMDRLRPFQD: the abundance fitness is -0.436 ± 0.14.
Turning to KPGPLPPNLDDLKVSELRQQLRIRGLPTSGTKTALMDRLRPFQD, the abundance fitness was 0.153 ± 0.088.
For KPGPLPPNLDDLKVSELRQQLRIRGLPISGTKTALMDRLRPFQD, the abundance fitness stood at 0.217 ± 0.17.
The result for KPGPLPPNLDDLKVSELRQQLRIRGLPESGTKTALMDRLRPFQD reads 0.082 ± 0.068.
In the case of KPGPLPPNLDDLKVSELRQQLRIRGLPHSGTKTALMDRLRPFQD, the abundance fitness is -0.264 ± 0.14.
In the case of KPGPLPPNLDDLKVSELRQQLRIRGLPMSGTKTALMDRLRPFQD it was 0.017 ± 0.18.
Take KPGPLPPNLDDLKVSELRQQLRIRGLPDSGTKTALMDRLRPFQD: the abundance fitness worked out at 0.294 ± 0.18.
As for KPGPLPPNLDDLKVSELRQQLRIRGLPASGTKTALMDRLRPFQD, the abundance fitness is -0.002 ± 0.063.
In the case of KPGPLPPNLDDLKVSELRQQLRIRGLPRSGTKTALMDRLRPFQD it was -0.671 ± 0.075; in that of KPGPLPPNLDDLKVSELRQQLRIRGLPVSGLKTALMDRLRPFQD, -0.344 ± 0.092.
In the case of KPGPLPPNLDDLKVSELRQQLRIRGLPVSGQKTALMDRLRPFQD it was -0.273 ± 0.12; in that of KPGPLPPNLDDLKVSELRQQLRIRGLPVSGWKTALMDRLRPFQD, -0.994 ± 0.13; in that of KPGPLPPNLDDLKVSELRQQLRIRGLPVSGDKTALMDRLRPFQD, 0.155 ± 0.092.
In the case of KPGPLPPNLDDLKVSELRQQLRIRGLPVSGKKTALMDRLRPFQD it was -0.217 ± 0.16.
Consider KPGPLPPNLDDLKVSELRQQLRIRGLPVSGFKTALMDRLRPFQD, for which the abundance fitness is -0.718 ± 0.39.
In the case of KPGPLPPNLDDLKVSELRQQLRIRGLPVSGSKTALMDRLRPFQD it was 0.103 ± 0.1; in that of KPGPLPPNLDDLKVSELRQQLRIRGLPVSGPKTALMDRLRPFQD, -0.222 ± 0.094; in that of KPGPLPPNLDDLKVSELRQQLRIRGLPVSGGKTALMDRLRPFQD, -0.214 ± 0.06.
In the case of KPGPLPPNLDDLKVSELRQQLRIRGLPVSGNKTALMDRLRPFQD it was 0.352 ± 0.11.
The result for KPGPLPPNLDDLKVSELRQQLRIRGLPVSGMKTALMDRLRPFQD reads -0.62 ± 0.22.
On to KPGPLPPNLDDLKVSELRQQLRIRGLPVSGVKTALMDRLRPFQD, for which the abundance fitness is -0.189 ± 0.072.
In the case of KPGPLPPNLDDLKVSELRQQLRIRGLPVSGEKTALMDRLRPFQD it was -0.01 ± 0.11.
The result for KPGPLPPNLDDLKVSELRQQLRIRGLPVSGCKTALMDRLRPFQD reads -0.052 ± 0.24; that for KPGPLPPNLDDLKVSELRQQLRIRGLPVSGRKTALMDRLRPFQD, -0.319 ± 0.085; that for KPGPLPPNLDDLKVSELRQQLRIRGLPVSGAKTALMDRLRPFQD, 0.078 ± 0.1.
In the case of KPGPLPPNLDDLKVSELRQQLRIRGLPVSGHKTALMDRLRPFQD it was -0.331 ± 0.13; in that of KPGPLPPNLDDLKVSELRQQLRIRGLPVLGTKTALMDRLRPFQD, -0.333 ± 0.093; in that of KPGPLPPNLDDLKVSELRQQLRIRGLPVEGTKTALMDRLRPFQD, 0.129 ± 0.074.
Take KPGPLPPNLDDLKVSELRQQLRIRGLPVVGTKTALMDRLRPFQD: the abundance fitness is -0.097 ± 0.079.
The result for KPGPLPPNLDDLKVSELRQQLRIRGLPVPGTKTALMDRLRPFQD reads -0.605 ± 0.095.
In the case of KPGPLPPNLDDLKVSELRQQLRIRGLPVGGTKTALMDRLRPFQD it was 0.042 ± 0.07; in that of KPGPLPPNLDDLKVSELRQQLRIRGLPVIGTKTALMDRLRPFQD, -0.376 ± 0.098; in that of KPGPLPPNLDDLKVSELRQQLRIRGLPVCGTKTALMDRLRPFQD, -0.191 ± 0.11.
The result for KPGPLPPNLDDLKVSELRQQLRIRGLPVRGTKTALMDRLRPFQD reads -0.362 ± 0.068; that for KPGPLPPNLDDLKVSELRQQLRIRGLPVMGTKTALMDRLRPFQD, -0.003 ± 0.14.
On to KPGPLPPNLDDLKVSELRQQLRIRGLPVHGTKTALMDRLRPFQD, for which the abundance fitness was -0.108 ± 0.16.
The result for KPGPLPPNLDDLKVSELRQQLRIRGLPVFGTKTALMDRLRPFQD reads -0.245 ± 0.32; that for KPGPLPPNLDDLKVSELRQQLRIRGLPVKGTKTALMDRLRPFQD, -0.113 ± 0.081.
In the case of KPGPLPPNLDDLKVSELRQQLRIRGLPVTGTKTALMDRLRPFQD it was -0.001 ± 0.087; in that of KPGPLPPNLDDLKVSELRQQLRIRGLPVYGTKTALMDRLRPFQD, -0.095 ± 0.29.
The result for KPGPLPPNLDDLKVSELRQQLRIRGLPVNGTKTALMDRLRPFQD reads -0.264 ± 0.21; that for KPGPLPPNLDDLKVSELRQQLRIRGLPVQGTKTALMDRLRPFQD, 0.006 ± 0.16.
For KPGPLPPNLDDLKVSELRQQLRIRGLPVAGTKTALMDRLRPFQD, the abundance fitness is -0.071 ± 0.064.
The result for KPGPLPPNLDDLKVSELRQQLRIRGLPVSGTKTELMDRLRPFQD reads 0.011 ± 0.066; that for KPGPLPPNLDDLKVSELRQQLRIRGLPVSGTKTCLMDRLRPFQD, -0.467 ± 0.1; that for KPGPLPPNLDDLKVSELRQQLRIRGLPVSGTKTDLMDRLRPFQD, 0.137 ± 0.077.
In the case of KPGPLPPNLDDLKVSELRQQLRIRGVPVSGTKTALMDRLRPFQD it was -0.732 ± 0.12; in that of KPGPLPPNLDDLKVSELRQQLRIRGWPVSGTKTALMDRLRPFQD, -0.951 ± 0.14.
The result for KPGPLPPNLDDLKVSELRQQLRIRGTPVSGTKTALMDRLRPFQD reads -0.805 ± 0.15.
With KPGPLPPNLDDLKVSELRQQLRIRGLPVSGTYTALMDRLRPFQD, the abundance fitness was -0.593 ± 0.31.
In the case of KPGPLPPNLDDLKVSELRQQLRIRGLPVSGTWTALMDRLRPFQD it was -0.759 ± 0.1.
